Reference: PMC9608600, “Functional Characterization of Saccharomyces cerevisiae P5C Reductase, the Enzyme at the Converging Point of Proline and Arginine Metabolism” (Microorganisms, 2022)

T1: Saccharomyces cerevisiae P5C reductase (Pro3, ScP5CR) (Saccharomyces cerevisiae, UniProt P32263)
T1 construct: native full-length enzyme purified from commercial bakers' yeast; untagged; gene-deduced subunit 30,132 Da; native 320 kDa, homodecamer
T1 sequence (P32263 1-286): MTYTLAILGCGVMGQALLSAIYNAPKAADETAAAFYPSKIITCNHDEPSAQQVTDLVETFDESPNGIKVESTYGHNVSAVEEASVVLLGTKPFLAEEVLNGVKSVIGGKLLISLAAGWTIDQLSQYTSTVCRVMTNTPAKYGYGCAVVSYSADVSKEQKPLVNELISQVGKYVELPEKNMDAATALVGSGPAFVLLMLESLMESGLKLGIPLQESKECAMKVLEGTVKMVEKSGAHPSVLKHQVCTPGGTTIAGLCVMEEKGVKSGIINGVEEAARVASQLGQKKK


Legend:
[1] = target: T1, Saccharomyces cerevisiae P5C reductase (Pro3, ScP5CR); assay: NAD(P)H oxidation at […] nm, nonlinear regression; type: biochemical
purified protein [2] = substrate: NC(=O)C1=CN([C@@H]2O[C@H](COP(=O)(O)OP(=O)(O)OC[C@H]3O[C@@H](n4cnc5c(N)ncnc54)[C@H](O)[C@@H]3O)[C@@H](O)[C@H]2O)C=CC1; assay: purified protein; type: biochemical, Saccharomyces cerevisiae; conditions: 1 mM L-P5C, Tris-HCl pH 7.2, 30 °C, kcat per monomer
purified protein [3] = substrate: NC(=O)C1=CN([C@@H]2O[C@H](COP(=O)(O)OP(=O)(O)OC[C@H]3O[C@@H](n4cnc5c(N)ncnc54)[C@H](OP(=O)(O)O)[C@@H]3O)[C@@H](O)[C@H]2O)C=CC1; assay: purified protein; type: biochemical, Saccharomyces cerevisiae; conditions: 1 mM L-P5C, Tris-HCl pH 7.2, 30 °C, kcat per monomer
purified protein [4] = substrate: O=C(O)[C@@H]1CCC=N1; assay: purified protein; type: biochemical, Saccharomyces cerevisiae; conditions: 0.5 mM NADH co-substrate, Tris-HCl pH 7.2, 30 °C, DL-P5C used, concentration as L-P5C

Row | Molecule | Ki [1] [mM] | Km (purified protein [2]) [µM] | Vmax (purified protein [2]) | kcat (purified protein [2]) [s⁻¹] | kcat/Km (purified protein [2]) [M⁻¹ s⁻¹] | Km (purified protein [3]) [µM] | Vmax (purified protein [3]) | kcat (purified protein [3]) | kcat/Km (purified protein [3]) [M⁻¹ s⁻¹] | Km (purified protein [4]) [µM]
1 | N=C(N)NCCC[C@H](N)C(=O)O [arginine] | 19 | – | – | – | – | – | – | – | – | –
2 | Saccharomyces cerevisiae P5C reductase (Pro3, ScP5CR) (Saccharomyces cerevisiae S288C) (protein, native full-length enzyme purified from commercial bakers' yeast; untagged; gene-deduced subunit 30,132 Da; native 320 kDa, homodecamer) MTYTLAILGCGVMGQALLSAIYNAPKAADETAAAFYPSKIITCNHDEPSAQQVTDLVETFDESPNGIKVESTYGHNVSAVEEASVVLLGTKPFLAEEVLNGVKSVIGGKLLISLAAGWTIDQLSQYTSTVCRVMTNTPAKYGYGCAVVSYSADVSKEQKPLVNELISQVGKYVELPEKNMDAATALVGSGPAFVLLMLESLMESGLKLGIPLQESKECAMKVLEGTVKMVEKSGAHPSVLKHQVCTPGGTTIAGLCVMEEKGVKSGIINGVEEAARVASQLGQKKK | – | 84.0 ± 7.1 | 107.9 ± 3.0 μkat (mg protein)^−1 | 3314 | 3.95e+07 | 133.4 ± 7.3 | 294.2 ± 5.7 μkat (mg protein)^−1 | 10,515 s^−1 | 7.88e+07 | 64.3 ± 5.5
